# Test results from US20250163162A1 (SYNTHEKINE, published 2025).
# T1: IL10Rα/IL2Rγ receptor (human, UniProt Q13651 22-578; P31785 23-369)
# T1 sequence (looked up) 1: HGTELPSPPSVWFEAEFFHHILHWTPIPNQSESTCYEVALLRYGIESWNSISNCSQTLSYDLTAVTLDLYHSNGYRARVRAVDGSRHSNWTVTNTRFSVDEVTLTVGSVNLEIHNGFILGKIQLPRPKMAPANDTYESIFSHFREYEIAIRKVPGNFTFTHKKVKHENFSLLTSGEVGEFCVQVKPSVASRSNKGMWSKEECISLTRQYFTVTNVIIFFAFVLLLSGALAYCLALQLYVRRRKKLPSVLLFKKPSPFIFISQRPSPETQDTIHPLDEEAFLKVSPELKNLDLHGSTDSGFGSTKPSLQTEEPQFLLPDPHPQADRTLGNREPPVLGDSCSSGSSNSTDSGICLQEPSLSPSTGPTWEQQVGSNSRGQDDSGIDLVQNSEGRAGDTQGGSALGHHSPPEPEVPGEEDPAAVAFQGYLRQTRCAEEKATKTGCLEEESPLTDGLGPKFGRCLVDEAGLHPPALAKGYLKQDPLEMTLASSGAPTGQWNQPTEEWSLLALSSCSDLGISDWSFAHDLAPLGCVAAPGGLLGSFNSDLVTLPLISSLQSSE
# T1 sequence (looked up) 2: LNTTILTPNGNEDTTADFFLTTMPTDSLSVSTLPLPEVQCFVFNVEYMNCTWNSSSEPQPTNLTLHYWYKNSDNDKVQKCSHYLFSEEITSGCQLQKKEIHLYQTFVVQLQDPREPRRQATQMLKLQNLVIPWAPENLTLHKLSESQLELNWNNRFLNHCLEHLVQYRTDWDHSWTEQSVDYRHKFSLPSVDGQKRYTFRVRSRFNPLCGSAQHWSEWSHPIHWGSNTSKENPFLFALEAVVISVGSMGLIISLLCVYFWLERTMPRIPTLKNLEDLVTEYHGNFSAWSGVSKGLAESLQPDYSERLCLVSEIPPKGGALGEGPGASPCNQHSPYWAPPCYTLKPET
# Columns and labels:
# Assay in all cases: cell-based or functional assay
# [1] = biological target: T1, IL10Rα/IL2Rγ receptor
# [2] = biological target: T1, IL10Rα/IL2Rγ receptor; remark: listed apart in the source
# [3] = biological target: T1, IL10Rα/IL2Rγ receptor; remark: listed apart in the source
# [4] = biological target: T1, IL10Rα/IL2Rγ receptor; remark: listed apart in the source
# [5] = biological target: T1, IL10Rα/IL2Rγ receptor; remark: listed apart in the source
# [6] = biological target: T1, IL10Rα/IL2Rγ receptor; remark: listed apart in the source
Binder,"pSTAT3 MFI, B cells, 100 nM (unstimulated 1045) [1]","pSTAT3 MFI, CD4+ T cells, 100 nM (unstimulated 1778) [1]","pSTAT3 MFI, CD8+ T cells, 100 nM (unstimulated 1288) [1]","pSTAT3 MFI, Monocytes, 100 nM (unstimulated 1787) [1]","pSTAT3 MFI, NK cells, 100 nM (unstimulated 1149) [1]","pSTAT3 MFI, B cells, 0.0001 nM (unstimulated 1193.5) [2]","pSTAT3 MFI, B cells, 0.001 nM (unstimulated 1193.5) [2]","pSTAT3 MFI, B cells, 0.01 nM (unstimulated 1193.5) [2]","pSTAT3 MFI, B cells, 0.1 nM (unstimulated 1193.5) [2]","pSTAT3 MFI, B cells, 1 nM (unstimulated 1193.5) [2]","pSTAT3 MFI, B cells, 10 nM (unstimulated 1193.5) [2]","pSTAT3 MFI, B cells, 100 nM (unstimulated 1193.5) [2]","pSTAT3 MFI, CD4 T cells, 0.0001 nM (unstimulated 1887) [3]","pSTAT3 MFI, CD4 T cells, 0.001 nM (unstimulated 1887) [3]","pSTAT3 MFI, CD4 T cells, 0.01 nM (unstimulated 1887) [3]","pSTAT3 MFI, CD4 T cells, 0.1 nM (unstimulated 1887) [3]","pSTAT3 MFI, CD4 T cells, 1 nM (unstimulated 1887) [3]","pSTAT3 MFI, CD4 T cells, 10 nM (unstimulated 1887) [3]","pSTAT3 MFI, CD4 T cells, 100 nM (unstimulated 1887) [3]","pSTAT3 MFI, NK cells, 0.0001 nM (unstimulated 1315) [4]",also measured
DR395(DR229-DR239) (bispecific antibody) QVQLQESGGGLVQPGGSLRLSCTASGFSFSSYPMTWARQAPGKGLEWVSTIASDGGSTAYAASVEGRFTISRDNAKSTLYLQLNSLKTEDTAMYYCTKGYGDGTPAPGQGTQVTVSSGGGSQVQLQESGGGSVQAGGSLRLSCTVSGYTYSSNCMGWFRQAPGKEREGVATIYTGGGNTYYADSVKGRFTISQDNAKNTVYLQMNNLKPEDTAMYYCAAEPLSRVYGGSCPTPTFDYWGQGTQVTVSSASHHHHHH,1030 MFI,3570 MFI,2700 MFI,2020 MFI,1430 MFI,1130 MFI,1130 MFI,1140 MFI,1150 MFI,1260 MFI,1340 MFI,1360 MFI,1800 MFI,1870 MFI,1890 MFI,2450 MFI,4570 MFI,5180 MFI,4670 MFI,1260 MFI,"pSTAT3 MFI, NK cells, 0.001 nM (unstimulated 1315) [4]: 1270 MFI; pSTAT3 MFI, NK cells, 0.01 nM (unstimulated 1315) [4]: 1260 MFI; pSTAT3 MFI, NK cells, 0.1 nM (unstimulated 1315) [4]: 1310 MFI; pSTAT3 MFI, NK cells, 1 nM (unstimulated 1315) [4]: 1640 MFI; pSTAT3 MFI, NK cells, 10 nM (unstimulated 1315) [4]: 1800 MFI; pSTAT3 MFI, NK cells, 100 nM (unstimulated 1315) [4]: 1760 MFI; pSTAT3 MFI, CD8 T cells, 0.0001 nM (unstimulated 1446) [5]: 1380 MFI; pSTAT3 MFI, CD8 T cells, 0.001 nM (unstimulated 1446) [5]: 1420 MFI; pSTAT3 MFI, CD8 T cells, 0.01 nM (unstimulated 1446) [5]: 1400 MFI; pSTAT3 MFI, CD8 T cells, 0.1 nM (unstimulated 1446) [5]: 1800 MFI; pSTAT3 MFI, CD8 T cells, 1 nM (unstimulated 1446) [5]: 3320 MFI; pSTAT3 MFI, CD8 T cells, 10 nM (unstimulated 1446) [5]: 3880 MFI; pSTAT3 MFI, CD8 T cells, 100 nM (unstimulated 1446) [5]: 3450 MFI; pSTAT3 MFI, Monocytes, 0.0001 nM (unstimulated 2116) [6]: 2060 MFI; pSTAT3 MFI, Monocytes, 0.001 nM (unstimulated 2116) [6]: 2060 MFI; pSTAT3 MFI, Monocytes, 0.01 nM (unstimulated 2116) [6]: 2020 MFI; pSTAT3 MFI, Monocytes, 0.1 nM (unstimulated 2116) [6]: 2020 MFI; pSTAT3 MFI, Monocytes, 1 nM (unstimulated 2116) [6]: 2210 MFI; pSTAT3 MFI, Monocytes, 10 nM (unstimulated 2116) [6]: 2340 MFI; pSTAT3 MFI, Monocytes, 100 nM (unstimulated 2116) [6]: 2440 MFI"
DR471(DR241-DR231) (bispecific antibody) QVQLQESGGGSVQAGGSLRLSCAASGYSNCSYDMTWYRQAPGKEREFVSAIHSDGSTRYADSVKGRFFISQDNAKNTVYLQMNSLKPEDTAMYYCKTDPLHCRAHGGSWYSVRANYWGQGTQVTVSSGGGSQVQLQESGGGSVQAGGSLRLSCTASGFTFDDREMNWYRQAPGNECELVSTISSDGSTYYADSVKGRFTISQDNAKNTVYLQMDSVKPEDTAVYYCAADFMIAIQAPGAGCWGQGTQVTVSSASHHHHHH,1140 MFI,6240 MFI,4220 MFI,1940 MFI,1700 MFI,1110 MFI,1120 MFI,1110 MFI,1110 MFI,1170 MFI,1340 MFI,1280 MFI,1800 MFI,1860 MFI,1860 MFI,2250 MFI,4600 MFI,6800 MFI,6200 MFI,1230 MFI,"pSTAT3 MFI, NK cells, 0.001 nM (unstimulated 1315) [4]: 1260 MFI; pSTAT3 MFI, NK cells, 0.01 nM (unstimulated 1315) [4]: 1250 MFI; pSTAT3 MFI, NK cells, 0.1 nM (unstimulated 1315) [4]: 1260 MFI; pSTAT3 MFI, NK cells, 1 nM (unstimulated 1315) [4]: 1530 MFI; pSTAT3 MFI, NK cells, 10 nM (unstimulated 1315) [4]: 2000 MFI; pSTAT3 MFI, NK cells, 100 nM (unstimulated 1315) [4]: 1940 MFI; pSTAT3 MFI, CD8 T cells, 0.0001 nM (unstimulated 1446) [5]: 1400 MFI; pSTAT3 MFI, CD8 T cells, 0.001 nM (unstimulated 1446) [5]: 1420 MFI; pSTAT3 MFI, CD8 T cells, 0.01 nM (unstimulated 1446) [5]: 1420 MFI; pSTAT3 MFI, CD8 T cells, 0.1 nM (unstimulated 1446) [5]: 1640 MFI; pSTAT3 MFI, CD8 T cells, 1 nM (unstimulated 1446) [5]: 3280 MFI; pSTAT3 MFI, CD8 T cells, 10 nM (unstimulated 1446) [5]: 4610 MFI; pSTAT3 MFI, CD8 T cells, 100 nM (unstimulated 1446) [5]: 4400 MFI; pSTAT3 MFI, Monocytes, 0.0001 nM (unstimulated 2116) [6]: 2010 MFI; pSTAT3 MFI, Monocytes, 0.001 nM (unstimulated 2116) [6]: 2030 MFI; pSTAT3 MFI, Monocytes, 0.01 nM (unstimulated 2116) [6]: 2000 MFI; pSTAT3 MFI, Monocytes, 0.1 nM (unstimulated 2116) [6]: 1990 MFI; pSTAT3 MFI, Monocytes, 1 nM (unstimulated 2116) [6]: 2030 MFI; pSTAT3 MFI, Monocytes, 10 nM (unstimulated 2116) [6]: 2230 MFI; pSTAT3 MFI, Monocytes, 100 nM (unstimulated 2116) [6]: 2210 MFI"
